Test results reported in the nanobody polyreactivity screen of Harvey et al. (2022).

Experiment: yeast display, Sf9 membrane polyspecificity reagent, FACS + sequencing; frameworks hold sequencing errors
Outline: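 A synthetic nanobody library was expressed on Saccharomyces cerevisiae BJ5465 by galactose induction for 36–48 hours. The library was stained for 1 hour at 4 °C with 10% biotinylated, detergent-solubilized Sf9 membrane reagent and enriched with streptavidin microbeads before FACS. Low and high (top ~1%) gates were set on anti-HA fluorescence for expression and streptavidin fluorescence for reagent binding, and each polyreactivity label reflects the gate of origin.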
With “QVQLVESGGGLVQAGGSLRLSCAASGSIFQPYAMGWYRQAPGKERELVAAISSSGGSTTYADSVKGRFTISRDNAKNTVYLQMNSLKPEDTAVYYCAADSADDMGYWGQGTQVTVSS” the “polyreactivity (PSR sort gate)” value was “low polyreactivity”. In the case of “QVQLVESGGGLVQAGGSLRLSCAASGSIFQPYAMGWYRQAPGKERELVAAITNGGSTYYADSVKGRFTISRDNAKNTVYLQMNSLKPEDTAVYYCAADVQSSHEYDYWGQGTQVTVSS”, the “polyreactivity (PSR sort gate)” value is reported as “low polyreactivity”. With “QVQLVESGGGLVQAGGSLRLSCAASGSIFQRYAMGWYRQAPGKERECVAAISGRGGSTYYADSVKGRFTISRDNAKNTVYLQMNSLKPEDTAVYYCAADSSRFYGRPRYYYWGQGTQVTVSS” the “polyreactivity (PSR sort gate)” value was “high polyreactivity”. For “QVQLVESGGGLVQAGGSLRLSCAASGSIFQRYTMGWYIQAPGKERELVAAISWSGDGTYYADSVKGRFTISRDNAKNTFYLQMNSLKPEDTAVYYCNDGYTRRYRFRVENDYDYWGQGTQVTVSS”, the “polyreactivity (PSR sort gate)” value was “high polyreactivity”. With “QVQLVESGGGLVQAGGSLRLSCAASGSIFQSNAMGWSRQAPGKERELVAAISSRGGRTYYADSVKGRFTISRDNAKYTVYLQLNSLKPEDTAVYYCAVVPFTEHDYWGQGTQVTVSS” the “polyreactivity (PSR sort gate)” value was “high polyreactivity”. In the case of “QVQLVESGGGLVQAGGSLRLSCAASGSIFQSYAMGWYRQAPGKERELVAGISSDGSTYYADSVKGRFTISRDNAKNTVYLQMNSLKPEDTAVYYCAAERWGNPTDYQFWRPYDYWGQGTQVTVSS”, the “polyreactivity (PSR sort gate)” value is reported as “low polyreactivity”. With “QVQLVESGGGLVQAGGSLRLSCAASGSIFQVNAMGWYRQAPGKERELVAANRSGGRTTYADSVKGRFTISRDNAKNTVYLQMISLKTEDTAVYYGAAPLYYKSWTYPRLRSGYWGQGTQVTVSS” the “polyreactivity (PSR sort gate)” value was “high polyreactivity”. For “QVQLVESGGGLVQAGGSLRLSCAASGSIFQWNAMGWYRQAPGKERELVAAMSWSGTRTYYADSVKGRFTISRDNAKNTVYLQMNSLKPEDTAVYDCAFRGGKPTYRYDYWGQGTQVTVSS”, the “polyreactivity (PSR sort gate)” value was “high polyreactivity”. For “QVQLVESGGGLVQAGGSLRLSCAASGSIFQWYAMGWYRQAPGKERELVAAITISGTRTYYADSVKGRFTISRDNAKYTVYLQMNSLKPEDTAVYYCAATEGGRFRRIADASMYYWGQGTQVTVSS”, the “polyreactivity (PSR sort gate)” value was “high polyreactivity”. For “QVQLVESGGGLVQAGGSLRLSCAASGSIFQYNAMGWSRQAPGKERELVAAISSRGGITYYADSVKGRFTISRDNAKNTVYLQMNSLKPEDTAVYYCAAEAYYSEVRWYEYWGQGTQVTVSS”, the “polyreactivity (PSR sort gate)” value was “high polyreactivity”. For “QVQLVESGGGLVQAGGSLRLSCAASGSIFQYNAMGWYREAPGHEWELVAVISRSGSRTYYADSVKGRFTISRDNAKNTVYLQMNSLKPEDTAVYYCAADIWFYTYYGYDYWGQGTQVTVSS”, the “polyreactivity (PSR sort gate)” value was “high polyreactivity”. In the case of “QVQLVESGGGLVQAGGSLRLSCAASGSIFQYNAMGWYRQAPGKEREFVADISYSGGTTDYADSVKGRFTISRDNAKNTVYLQMNRLKPEDTAVYYCNADLSSGYPYSYYSATEYDYWGQGSQVTVSS”, the “polyreactivity (PSR sort gate)” value is reported as “low polyreactivity”. With “QVQLVESGGGLVQAGGSLRLSCAASGSIFQYNAMGWYRQAPGTERELVAAITWTGTSTYADSVKGRFTISRDNAKNTVYLQMNSLKPEDTAVYYCAARYYAPRWFRYDYWGQGTQVTVSS” the “polyreactivity (PSR sort gate)” value was “low polyreactivity”. For “QVQLVESGGGLVQAGGSLRLSCAASGSIFQYNAMGWYRQVPGKERELVAAITSGGSTYADSVKGRFTISRDNAKNTVYLQMNSLKPEDTAVYYCNADRWFGNYLHLTFLNDYWGQGTQVTVSS”, the “polyreactivity (PSR sort gate)” value was “low polyreactivity”. With “QVQLVESGGGLVQAGGSLRLSCAASGSIFQYNVKGWYRQEPGKEREFVADISSSGGSTYYADSVKGRFTISRDNAKNTVYLQMNSLKPEDTAVYYCNADPGYVFYRDEYWGQGTQVTVSS” the “polyreactivity (PSR sort gate)” value was “low polyreactivity”. With “QVQLVESGGGLVQAGGSLRLSCAASGSIFRANAMGGYRQAPGKERELVATISSGGSTNYADSVKGRFTISRDNAKNTVYLQMNSLKPEDTAVYYCAVKWYPPGHDYWGQGTQVTVSS” the “polyreactivity (PSR sort gate)” value was “low polyreactivity”. With “QVQLVESGGGLVQAGGSLRLSCAASGSIFRANAMGWYRQAPGKERELVAAISYSGGSTYYADSVKGRFTISRDNAKNTVYLQMNTLKPEDTAVYYCAAEFLYASVYYSYWGQGTQVTVSS” the “polyreactivity (PSR sort gate)” value was “high polyreactivity”. For “QVQLVESGGGLVQAGGSLRLSCAASGSIFRANVLGWYRKAPGKERELVAAISRGGGTTYYADSVKGRFTISRDNAKNTVYLQMNSLKPEDTAVYYCAALGHYRSNNNVDMDYWGQGTQVTVSS”, the “polyreactivity (PSR sort gate)” value was “high polyreactivity”. With “QVQLVESGGGLVQAGGSLRLSCAASGSIFRAYALGWYRQAPGEERELVAAISWRAGRTYYADSVKGRFTISRDNAKNTVYLQMNSLKPEDTAVYYCAARKRAQQGTRDHDYWGQGTQVTVSS” the “polyreactivity (PSR sort gate)” value was “high polyreactivity”. With “QVQLVESGGGLVQAGGSLRLSCAASGSIFRAYAMGWYRQAPGKERELVAAISIGGRTYYADSVKGRFTISRDNAKNTVYLQMNSLKPEDTAVYYCAAVRSYVKGGMYYWGQGTQVTVSS” the “polyreactivity (PSR sort gate)” value was “low polyreactivity”. For “QVQLVESGGGLVQAGGSLRLSCAASGSIFRAYAMGWYRQAPGKERELVAAISWGGGSTSYADSVKGRFTISRDNAKNTVYLQMNSLKPEDTAVYFCNKVSFSKRRDYYWGQGTQVTVSS”, the “polyreactivity (PSR sort gate)” value was “high polyreactivity”. For “QVQLVESGGGLVQAGGSLRLSCAASGSIFRAYAMGWYRQAPGKERELVAAISWGGGSTSYADSVKGRFTISRDNAKNTVYLQMNSLKPEDTAVYYCNKVSFSKRRDYYWGQGTQVTVSS”, the “polyreactivity (PSR sort gate)” value was “high polyreactivity”. With “QVQLVESGGGLVQAGGSLRLSCAASGSIFRAYAMGWYRQAPGKERELVAAITRGGSTNYADSVKGRFTISRDNAKNNVYLQMKSLKPEDTAVYYCAAQNYWYYPRRFDYWGQGTQVTVSS” the “polyreactivity (PSR sort gate)” value was “high polyreactivity”. With “QVQLVESGGGLVQAGGSLRLSCAASGSIFRAYAMGWYRQAPGKERELVAGITKSGGSTYYADSVKGRFTISRDNAKNTVYLQMNILKPEDTAVYYCAAYRSRTYGYWGQGTQVTVSS” the “polyreactivity (PSR sort gate)” value was “high polyreactivity”. For “QVQLVESGGGLVQAGGSLRLSCAASGSIFRAYTMGWYRQAPGKERELVAAINWSGGSTYYADSVKGRFTISRDNAKNTVYLQMNSLKPEDTAVYYCAKRWASWRYDYWGQGTQVTVSS”, the “polyreactivity (PSR sort gate)” value was “high polyreactivity”. With “QVQLVESGGGLVQAGGSLRLSCAASGSIFRDNAMGWYRQAPGKERELVAAINVRDGDTFYADSVKGRFTISRDNAKNTVYLQMNSLKPEDTAVYYCAVPGATSYFAYDSWGQGTQVTVSS” the “polyreactivity (PSR sort gate)” value was “low polyreactivity”. In the case of “QVQLVESGGGLVQAGGSLRLSCAASGSIFRFKAMGWYRQAPGKERELVAAITSSGGSTYYADSVKGRFTISRDNAKNTVYLQMNSLKPEDTAVYYCAAGARRVGRYYWGQGTQVTVSS”, the “polyreactivity (PSR sort gate)” value is reported as “high polyreactivity”. In the case of “QVQLVESGGGLVQAGGSLRLSCAASGSIFRFYAMGWYRQAPGKERELDAVITSTGRKYYADSVKGRFTISRDNAKNTGYLQMTSLKPEDTAVYYCNAAEAGKGAYAYDYWGQGTQVTVSS”, the “polyreactivity (PSR sort gate)” value is reported as “low polyreactivity”. With “QVQLVESGGGLVQAGGSLRLSCAASGSIFRFYAMGWYRQAPGKERELVAAITSGGSTNYADSVKGRFTISRDNAKNTVYLQMNSLKPEDTAVYYCAAELVYFFIYDYWGQGTQVTVSS” the “polyreactivity (PSR sort gate)” value was “low polyreactivity”. For “QVQLVESGGGLVQAGGSLRLSCAASGSIFRFYGMGWYRQAPGKERELVATISWSSGRTSYADSVKGRFTISRDNAKNTVYLQMKSLKPEDTAVYYCNADQWDKSYDYWGQGTQVTVSS”, the “polyreactivity (PSR sort gate)” value was “high polyreactivity”. For “QVQLVESGGGLVQAGGSLRLSCAASGSIFRFYTMGWYRQAPGKERELVAAIRYRGTSTYYADSVKGRFTISRDNAKNTVYLQMNSLKPEDTAVYYCATRNIYFSSVDYWGQGTQVTVSS”, the “polyreactivity (PSR sort gate)” value was “high polyreactivity”. In the case of “QVQLVESGGGLVQAGGSLRLSCAASGSIFRGNAMGWYRQAPGKERELVAAINKSGGSTYYADSVKGRFTISRDNAKNTVYLQMNSLKPEDTAVYYCAAVYKRLQPYGYWGQGTQVTVSS”, the “polyreactivity (PSR sort gate)” value is reported as “high polyreactivity”.
